Data from US20250206841A1 (ADEPT THERAPEUTICS, published 2025).

Assays:
human Trop-2-His protein [1] = target: T1, human Trop-2-His protein (human, UniProt P09758 27-274); test: ELISA, coated Trop-2 protein
T1 construct: extracellular domain; Assay paragraphs say only 'Trop-2-His'; also called hTrop-2; Kactus Cat #TRP-HM121; not shown: His tag
T1 sequence (looked up): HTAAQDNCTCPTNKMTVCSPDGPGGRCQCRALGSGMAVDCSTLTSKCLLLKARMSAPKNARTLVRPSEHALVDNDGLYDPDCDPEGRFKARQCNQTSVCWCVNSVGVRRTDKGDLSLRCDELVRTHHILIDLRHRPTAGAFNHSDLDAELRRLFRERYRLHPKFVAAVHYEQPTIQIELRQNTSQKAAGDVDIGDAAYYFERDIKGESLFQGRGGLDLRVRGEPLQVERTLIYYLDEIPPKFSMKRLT
Protocol: Purified antibodies were tested by ELISA to confirm their binding and affinity against human and cynomolgus Trop-2-His protein. Briefly, 96-well Maxisorp plates (Nunc) were coated with 100 μl/well of 0.5 μg/ml human (Kactus Cat #TRP-HM121, or Sino Biological, Cat #10428-HO8H) or cynomolgus Trop-2 protein (Kactus Cat #TRP-CM121, or Sino Biological, Cat #90893-CO8H) diluted in 1×PBS (GIBCO) overnight at 4° C. Plates were washed four times with 300 μl/well washing buffer (1×PBST, diluted from 20×PBST (Thermo Scientific) with distilled water)) and then blocked with 300 μl/well of blocking buffer (1×PBST/3% BSA (BSA, Sigma)) for 2 hours at RT on plate shaker at 100 rpm. Plates were washed and added with 100 μl/well of testing antibodies, which were serial diluted with assay buffer (PBST/1% BSA). The antibodies were incubated at room temperature for 2 hours on plate shaker at 100 rpm. Plates were washed. One hundred microliters (100 μl) of 1:10,000 diluted horseradish peroxidase (HRP) conjugated anti-hIgG antibody (Jackson Immuno Research) was added into each well and incubated at room temperature for 1 hour on plate shaker at 100 rpm. Plates were washed and added with 100 μl/well TMB substrate for color development in dark at room temperature for up to 10 minutes. After addition of 50 μl/well of stop solution (1N H₂SO₄), plates were read at 450 nm on a plate reader (SpectraMax M5). EC₅₀ values were calculated using Graphpad Prism. Sacituzumab govitecan, was used as positive control. Anti-HEL.hIgG1 was used as isotype control.

human Trop-2-His protein [2] = target: T1, human Trop-2-His protein; test: BLI (Gator Plus), Ab on HFC probe
[3] = target: T2, human Trop-2 expressed on cell surface (human, UniProt P09758 27-323); test: flow cytometry, MCF-7 cells
T2 sequence (looked up): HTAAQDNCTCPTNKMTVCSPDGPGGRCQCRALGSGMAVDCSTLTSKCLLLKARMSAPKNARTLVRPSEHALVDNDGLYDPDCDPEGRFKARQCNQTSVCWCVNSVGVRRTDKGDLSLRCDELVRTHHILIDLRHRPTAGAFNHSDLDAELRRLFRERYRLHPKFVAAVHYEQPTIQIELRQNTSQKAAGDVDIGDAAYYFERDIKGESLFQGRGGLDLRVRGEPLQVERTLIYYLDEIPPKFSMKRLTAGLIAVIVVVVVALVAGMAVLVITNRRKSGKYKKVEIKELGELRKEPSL
Protocol: (§1) Cells were then resuspended in FACS buffer (1×DPBS/1% FBS) at 10⁶/ml concentration. One hundred microliter (100 μl) of cells were aliquoted into a single well in 96 well plates. The antibodies to be tested were serially diluted at 1:3 fold starting at 15 μg/mL and were then added into each well. The antibodies were mixed with cells and the mixtures were incubated on ice for 1 hour. After washing with FACS buffer, one hundred microliter (100 μl) of 1:400 diluted PE-conjugated anti-human Fc secondary antibody (Jackson Immuno Research) was added into each well and incubated for 30 minutes on ice. After washing with FACS buffer, stained cells were resuspended at diluted 7-ADD (Biolegend, used at 1:100 dilution) and analyzed on Guava 11HT or 5HT (Luminex). Data was analyzed using Flowjo software. EC₅₀ values were calculated using GraphPad Prism. Sacitnzurnab govitecan was used as positive control. Anti-HEL.hIgG1 was used as isotype negative control. Similar assay was performed using MCF-7 cells (known to express human Trop-2).

[4] = target: T2, human Trop-2 expressed on cell surface; test: flow cytometry, MDA-MB-231-GFP cells
Protocol: as §1

[5] = target: cynomolgus Trop-2-His protein (cynomolgus); test: BLI (Gator Prime), positive control at 1 µg/ml on HFC probe
human Trop-2-His protein [6] = target: T1, human Trop-2-His protein; test: as above
[7] = target: cynomolgus Trop-2-His protein (cynomolgus); test: ELISA, coated Trop-2 protein
[8] = target: T2, human Trop-2 expressed on cell surface; test: cell-based or functional assay
[9] = target: cynomolgus Trop-2-His protein (cynomolgus); test: BLI (Gator Prime), positive control at 1 µg/ml on HFC probe; second line of values
human Trop-2-His protein [10] = target: T1, human Trop-2-His protein; test: as above

B1: Sacituzumab govitecan (antibody, INN chains, looked up, V domains shown)
VH: QVQLQQSGSELKKPGASVKVSCKASGYTFTNYGMNWVKQAPGQGLKWMGWINTYTGEPTYTDDFKGRFAFSLDTSVSTAYLQISSLKADDTAVYFCARGGFGSSYWYFDVWGQGSLVTVSS
VL: DIQLTQSPSSLSASVGDRVSITCKASQDVSIAVAWYQQKPGKAPKLLIYSASYRYTGVPDRFSGSGSGTDFTLTISSLQPEDFAVYYCQQHYITPLTFGAGTKVEIKR
modifications: SN-38 payload (govitecan)
EC50 (human Trop-2-His protein [1]): 0.014 nM | kon (human Trop-2-His protein [2]): 239000 M⁻¹ s⁻¹ | EC50 [3]: 2.2 nM | EC50 [4]: 0.09 nM | Kd [5]: 0.614 nM | koff [5]: 0.00022 s⁻¹ | kon [5]: 405000 M⁻¹ s⁻¹ | Kd (human Trop-2-His protein [6]): 0.755 nM | koff (human Trop-2-His protein [6]): 0.00022 s⁻¹ | kon (human Trop-2-His protein [6]): 285000 M⁻¹ s⁻¹ | EC50 [7]: 0.017 nM | EC50 of ADCC (NFAT-CD16 reporter), MCF-7; average from 3 plates [8]: 2.72 nM | EC50 of ADCC (NFAT-CD16 reporter), MDA-MB-231; average from 3 plates [8]: 0.55 nM | Internalization %, MCF-7, 0.25 µg/ml, 1 h [8]: 30% | Internalization %, MCF-7, 0.25 µg/ml, 2 h [8]: 43% | Internalization %, MCF-7, 0.25 µg/ml, 4 h [8]: 44% | Internalization %, MCF-7, 0.5 µg/ml, 1 h [8]: -4% | Internalization %, MCF-7, 0.5 µg/ml, 2 h [8]: 41% | Internalization %, MCF-7, 0.5 µg/ml, 4 h [8]: 55% | Internalization %, MDA-MB-231, 0.25 µg/ml, 2 h [8]: 41% | Internalization %, MDA-MB-231, 0.25 µg/ml, 4 h [8]: 46% | Internalization %, MDA-MB-231, 0.5 µg/ml, 2 h [8]: 42% | Internalization %, MDA-MB-231, 0.5 µg/ml, 4 h [8]: 45% | Internalization %, MDA-MB-231, 1 µg/ml, 2 h [8]: 43% | Internalization %, MDA-MB-231, 1 µg/ml, 4 h [8]: 49% | Internalization %, MDA-MB-231, 2 µg/ml, 2 h [8]: 43% | Internalization %, MDA-MB-231, 2 µg/ml, 4 h [8]: 48% | Kd [9]: 0.772 nM | koff [9]: 0.00025 s⁻¹ | kon [9]: 326000 M⁻¹ s⁻¹ | Kd (human Trop-2-His protein [10]): 0.497 nM | koff (human Trop-2-His protein [10]): 0.00014 s⁻¹ | kon (human Trop-2-His protein [10]): 281000 M⁻¹ s⁻¹
